{
  "source": "paper PMC8459933",
  "key": {"[1]": {"molecular_target": "PltB subunit of typhoid toxin (Salmonella enterica serovar Typhi)", "assay": "cryo-EM structure"}, "[2]": {"molecular_target": "tagless PltB pentamer (Salmonella enterica serovar Typhi)", "assay": "SEC"}},
  "data": [
    {"substance": "PltB subunit of typhoid toxin (natural protein)", "values": [
      {"measurement": "stoichiometry N", "setting": "[1]", "result": 5}
    ]},
    {"substance": "tagless PltB pentamer (natural protein)", "values": [
      {"measurement": "stoichiometry N", "setting": "[2]", "result": 5}
    ]}
  ]
}
